These results are taken from patent publication US20170204176A1 (MacroGenics, published 2017).

In experiment [1] the target is T1, EphA2 on EphA2-expressing CHO cells (UniProt P29317 24-976, limits assumed).
T1 construct: whole, on cells; EphA2 mAb 1 is called an anti-human EphA2 antibody; also called EphA2-expressing CHO target cells
Briefly: FACS on EphA2-expressing CHO cells (Log MFI).

In experiment [2] the target is T2, DR5 on DR5-expressing CHO cells (UniProt O14763 56-440, limits assumed).
T2 construct: whole, on cells; also called DR5-expressing CHO target cells
Briefly: FACS on DR5-expressing CHO cells (Log MFI).
Text: The ability of Tri-Specific Binding Molecules of the present invention to bind to target cells was investigated.

Experiment [3] addresses T3, EphA2 on DU145 human prostate cells (human, UniProt P29317 24-976).
T3 construct: whole, on cells; DU145 cells carry both EphA2 and DR5; also called DU145 cells (express EphA2 and DR5, not gpA33)
The experiment in a line: FACS on DU145 cells (gpA33- EphA2+ DR5+), Log MFI; only the EphA2 domain has its antigen on these cells.

For experiment [4], the target named is T3, EphA2 on DU145 human prostate cells. The experiment in a line: FACS on DU145 cells (gpA33- EphA2+ DR5+), Log MFI.
Experiment [5] has as its target T4, DR5 on DU145 human prostate cells (human, UniProt O14763 56-440).
T4 construct: whole, on cells; DU145 cells carry both EphA2 and DR5; also called DU145 cells (express EphA2 and DR5, not gpA33)
The experiment in a line: FACS on DU145 cells (gpA33- EphA2+ DR5+), Log MFI.

B1: EphA2 mAb 1×CD3 mAb 2×DR5 mAb 1 (other)
chain 1: DIQMTQTTSSLSASLGDRITISCRASQDISNYLNWYQQKPDGTVKLLIYYTSRLHSGVPSRFSGSGSGTDYSLTISNLEQEDIATYFCQQGYTLYTFGGGTKLEIKGGGSGGGGEVQLVESGGGLVQPGGSLRLSCAASGFTFSTYAMNWVRQAPGKGLEWVGRIRSKYNNYATYYADSVKGRFTISRDDSKNSLYLQMNSLKTEDTAVYYCVRHGNFGNSYVSWFAYWGQGTLVTVSSGGCGGGEVAALEKEVAALEKEVAALEKEVAALEKGGGDKTHTCPPCPAPEAAGGPSVFLFPPKPKDTLMISRTPEVTCVVVDVSHEDPEVKFNWYVDGVEVHNAKTKPREEQYNSTYRVVSVLTVLHQDWLNGKEYKCKVSNKALPAPIEKTISKAKGQPREPQVYTLPPSREEMTKNQVSLWCLVKGFYPSDIAVEWESNGQPENNYKTTPPVLDSDGSFFLYSKLTVDKSRWQQGNVFSCSVMHEALHNHYTQKSLSLSPGK
chain 2: QAVVTQEPSLTVSPGGTVTLTCRSSTGAVTTSNYANWVQQKPGQAPRGLIGGTNKRAPWTPARFSGSLLGGKAALTITGAQAEDEADYYCALWYSNLWVFGGGTKLTVLGGGGSGGGGQVQLKESGPGLVAPSQSLSITCTVSGFSLSRYSVHWVRQPPGKGLEWLGMIWGGGSTDYNSALKSRLSISKDNSKSQVFLKMNSLQTDDTAMYYCARKHGNYYTMDYWGQGTSVTVSSGGCGGGKVAALKEKVAALKEKVAALKEKVAALKE
heavy: EVKFLESGGGLVQPGGSLKLSCVASGFDFSRYWMSWVRQAPGKGLEWIGEINPDSNTINYTPSLKDKFIISRDNAKNTLYLQMTKVRSEDTALYYCTRRAYYGNPAWFAYWGQGTLVTVSSASTKGPSVFPLAPSSKSTSGGTAALGCLVKDYFPEPVTVSWNSGALTSGVHTFPAVLQSSGLYSLSSVVTVPSSSLGTQTYICNVNHKPSNTKVDKRVEPKSCDKTHTCPPCPAPEAAGGPSVFLFPPKPKDTLMISRTPEVTCVVVDVSHEDPEVKFNWYVDGVEVHNAKTKPREEQYNSTYRVVSVLTVLHQDWLNGKEYKCKVSNKALPAPIEKTISKAKGQPREPQVYTLPPSREEMTKNQVSLSCAVKGFYPSDIAVEWESNGQPENNYKTTPPVLDSDGSFFLVSKLTVDKSRWQQGNVFSCSVMHEALHNRYTQKSLSLSPGK
light: DIVLTQSPASLAVSLGQRATISCRASKSVSSSGYSYMHWYQQKPGQPPKVLIFLSSNLDSGVPARFSGSGSGTDFTLNIHPVEDGDAATYYCQHSRDLPPTFGGGTKLEIKRTVAAPSVFIFPPSDEQLKSGTASVVCLLNNFYPREAKVQWKVDNALQSGNSQESVTEQDSKDSTYSLSSTLTLSKADYEKHKVYACEVTHQGLSSPVTKSFNRGEC
notes: a Fab-type heavy chain with hole Fc; a kappa light chain
B1: the entries for the “EC50 (read off the curve)” value in experiment [1] and in experiment [2] were ~0.7 nM and ~0.9 nM, respectively.

B2: EphA2 mAb 1×CD3 mAb 2×gpA33 mAb 1 (other)
chain 1: DIQMTQTTSSLSASLGDRITISCRASQDISNYLNWYQQKPDGTVKLLIYYTSRLHSGVPSRFSGSGSGTDYSLTISNLEQEDIATYFCQQGYTLYTFGGGTKLEIKGGGSGGGGEVQLVESGGGLVQPGGSLRLSCAASGFTFSTYAMNWVRQAPGKGLEWVGRIRSKYNNYATYYADSVKGRFTISRDDSKNSLYLQMNSLKTEDTAVYYCVRHGNFGNSYVSWFAYWGQGTLVTVSSGGCGGGEVAALEKEVAALEKEVAALEKEVAALEKGGGDKTHTCPPCPAPEAAGGPSVFLFPPKPKDTLMISRTPEVTCVVVDVSHEDPEVKFNWYVDGVEVHNAKTKPREEQYNSTYRVVSVLTVLHQDWLNGKEYKCKVSNKALPAPIEKTISKAKGQPREPQVYTLPPSREEMTKNQVSLWCLVKGFYPSDIAVEWESNGQPENNYKTTPPVLDSDGSFFLYSKLTVDKSRWQQGNVFSCSVMHEALHNHYTQKSLSLSPGK
chain 2: QAVVTQEPSLTVSPGGTVTLTCRSSTGAVTTSNYANWVQQKPGQAPRGLIGGTNKRAPWTPARFSGSLLGGKAALTITGAQAEDEADYYCALWYSNLWVFGGGTKLTVLGGGGSGGGGQVQLKESGPGLVAPSQSLSITCTVSGFSLSRYSVHWVRQPPGKGLEWLGMIWGGGSTDYNSALKSRLSISKDNSKSQVFLKMNSLQTDDTAMYYCARKHGNYYTMDYWGQGTSVTVSSGGCGGGKVAALKEKVAALKEKVAALKEKVAALKE
heavy: QVQLVQSGAEVKKPGASVKVSCKASGYTFTGSWMNWVRQAPGQGLEWIGRIYPGDGETNYNGKFKDRVTITADKSTSTAYMELSSLRSEDTAVYYCARIYGNNVYFDVWGQGTTVTVSSASTKGPSVFPLAPSSKSTSGGTAALGCLVKDYFPEPVTVSWNSGALTSGVHTFPAVLQSSGLYSLSSVVTVPSSSLGTQTYICNVNHKPSNTKVDKRVEPKSCDKTHTCPPCPAPEAAGGPSVFLFPPKPKDTLMISRTPEVTCVVVDVSHEDPEVKFNWYVDGVEVHNAKTKPREEQYNSTYRVVSVLTVLHQDWLNGKEYKCKVSNKALPAPIEKTISKAKGQPREPQVYTLPPSREEMTKNQVSLSCAVKGFYPSDIAVEWESNGQPENNYKTTPPVLDSDGSFFLVSKLTVDKSRWQQGNVFSCSVMHEALHNRYTQKSLSLSPGK
light: DIQLTQSPSFLSASVGDRVTITCSARSSISFMYWYQQKPGKAPKLLIYDTSNLASGVPSRFSGSGSGTEFTLTISSLEAEDAATYYCQQWSSYPLTFGQGTKLEIKRTVAAPSVFIFPPSDEQLKSGTASVVCLLNNFYPREAKVQWKVDNALQSGNSQESVTEQDSKDSTYSLSSTLTLSKADYEKHKVYACEVTHQGLSSPVTKSFNRGEC
As for B2, the “EC50 (read off the curve)” value is ~1 nM in experiment [3] and ~0.9 nM in experiment [1]. Also, the binding result in experiment [2] is given as “no binding”.

B3: gpA33 mAb 1×CD3 mAb 2×DR5 mAb 1 (other)
chain 1: DIQLTQSPSFLSASVGDRVTITCSARSSISFMYWYQQKPGKAPKLLIYDTSNLASGVPSRFSGSGSGTEFTLTISSLEAEDAATYYCQQWSSYPLTFGQGTKLEIKGGGSGGGGEVQLVESGGGLVQPGGSLRLSCAASGFTFSTYAMNWVRQAPGKGLEWVGRIRSKYNNYATYYADSVKGRFTISRDDSKNSLYLQMNSLKTEDTAVYYCVRHGNFGNSYVSWFAYWGQGTLVTVSSGGCGGGEVAALEKEVAALEKEVAALEKEVAALEKGGGDKTHTCPPCPAPEAAGGPSVFLFPPKPKDTLMISRTPEVTCVVVDVSHEDPEVKFNWYVDGVEVHNAKTKPREEQYNSTYRVVSVLTVLHQDWLNGKEYKCKVSNKALPAPIEKTISKAKGQPREPQVYTLPPSREEMTKNQVSLWCLVKGFYPSDIAVEWESNGQPENNYKTTPPVLDSDGSFFLYSKLTVDKSRWQQGNVFSCSVMHEALHNHYTQKSLSLSPGK
chain 2: QAVVTQEPSLTVSPGGTVTLTCRSSTGAVTTSNYANWVQQKPGQAPRGLIGGTNKRAPWTPARFSGSLLGGKAALTITGAQAEDEADYYCALWYSNLWVFGGGTKLTVLGGGGSGGGGQVQLVQSGAEVKKPGASVKVSCKASGYTFTGSWMNWVRQAPGQGLEWIGRIYPGDGETNYNGKFKDRVTITADKSTSTAYMELSSLRSEDTAVYYCARIYGNNVYFDVWGQGTTVTVSSGGCGGGKVAALKEKVAALKEKVAALKEKVAALKE
heavy: EVKFLESGGGLVQPGGSLKLSCVASGFDFSRYWMSWVRQAPGKGLEWIGEINPDSNTINYTPSLKDKFIISRDNAKNTLYLQMTKVRSEDTALYYCTRRAYYGNPAWFAYWGQGTLVTVSSASTKGPSVFPLAPSSKSTSGGTAALGCLVKDYFPEPVTVSWNSGALTSGVHTFPAVLQSSGLYSLSSVVTVPSSSLGTQTYICNVNHKPSNTKVDKRVEPKSCDKTHTCPPCPAPEAAGGPSVFLFPPKPKDTLMISRTPEVTCVVVDVSHEDPEVKFNWYVDGVEVHNAKTKPREEQYNSTYRVVSVLTVLHQDWLNGKEYKCKVSNKALPAPIEKTISKAKGQPREPQVYTLPPSREEMTKNQVSLSCAVKGFYPSDIAVEWESNGQPENNYKTTPPVLDSDGSFFLVSKLTVDKSRWQQGNVFSCSVMHEALHNRYTQKSLSLSPGK
light: DIVLTQSPASLAVSLGQRATISCRASKSVSSSGYSYMHWYQQKPGQPPKVLIFLSSNLDSGVPARFSGSGSGTDFTLNIHPVEDGDAATYYCQHSRDLPPTFGGGTKLEIKRTVAAPSVFIFPPSDEQLKSGTASVVCLLNNFYPREAKVQWKVDNALQSGNSQESVTEQDSKDSTYSLSSTLTLSKADYEKHKVYACEVTHQGLSSPVTKSFNRGEC
Regarding B3, the binding result in experiment [1] is “no binding”. The “EC50 (read off the curve)” value in experiment [2] was ~0.9 nM.

B4: gpA33 mAb 1 x CD3 mAb 2 (bispecific antibody)
first polypeptide chain (VL gpA33 mAb 1 - Linker 1 - VH CD3 mAb 2 D65G - ASTKG - cysteine-containing E-coil): DIQLTQSPSFLSASVGDRVTITCSARSSISFMYWYQQKPGKAPKLLIYDTSNLASGVPSRFSGSGSGTEFTLTISSLEAEDAATYYCQQWSSYPLTFGQGTKLEIKGGGSGGGGEVQLVESGGGLVQPGGSLRLSCAASGFTFSTYAMNWVRQAPGKGLEWVGRIRSKYNNYATYYADSVKGRFTISRDDSKNSLYLQMNSLKTEDTAVYYCVRHGNFGNSYVSWFAYWGQGTLVTVSSASTKGEVAACEKEVAALEKEVAALEKEVAALEK
second polypeptide chain (VL CD3 mAb 2 - Linker 1 - VH gpA33 mAb 1 - ASTKG - cysteine-containing K-coil): QAVVTQEPSLTVSPGGTVTLTCRSSTGAVTTSNYANWVQQKPGQAPRGLIGGTNKRAPWTPARFSGSLLGGKAALTITGAQAEDEADYYCALWYSNLWVFGGGTKLTVLGGGGSGGGGQVQLVQSGAEVKKPGASVKVSCKASGYTFTGSWMNWVRQAPGQGLEWIGRIYPGDGETNYNGKFKDRVTITADKSTSTAYMELSSLRSEDTAVYYCARIYGNNVYFDVWGQGTTVTVSSASTKGKVAACKEKVAALKEKVAALKEKVAALKE
For B4, the binding result in experiment [1], in experiment [2], in experiment [4] and in experiment [5] was “no binding” each time.

Broadly, the EC50 (read off the curve) is the concentration needed to bring the measured effect to its halfway point. A low value points to a more potent agent.
